Data: article PMC3991886, “Characterization of single-stranded DNA-binding proteins from the psychrophilic bacteria Desulfotalea psychrophila, Flavobacterium psychrophilum, Psychrobacter arcticus, Psychrobacter cryohalolentis, Psychromonas ingrahamii, Psychroflexus torquis, and Photobacterium profundum” (BMC Microbiology, 2014)

Columns and labels:
[1] = target: Photobacterium profundum single-stranded DNA-binding protein (Photobacterium profundum) (UniProt Q6LM83); assay: cross-linking; 0.5% (v/v) glutaraldehyde, 15 min, 25°C, 10, 50 or 100 pmol SSB; quenched with 1 M Tris-HCl pH 8.0; SDS-PAGE (12%)
[2] = target: Photobacterium profundum single-stranded DNA-binding protein (Photobacterium profundum) (UniProt Q6LM83); assay: SEC; analytical gel filtration, Superdex 200 10/300 GL, 20 mM Tris-HCl pH 7.5, 150 mM NaCl, 10 mM EDTA, 0.5 ml/min; mass from a regression curve of standard proteins
[3] = target: Photobacterium profundum single-stranded DNA-binding protein (Photobacterium profundum) (UniProt Q6LM83); assay: sedimentation in glycerol gradient; linear 15 to 30% (w/v) glycerol gradients in 50 mM Tris-HCl pH 7.5, 0.5 M NaCl, 1 mM EDTA, 5 mM beta-mercaptoethanol; 50 ul of 300 uM SSB; SW 60 rotor, 46,000 rpm, 24 h, 4°C; fractions by SDS-PAGE; compared with standard proteins, EcoSSB and PhaSSB
[4] = target: Psychrobacter cryohalolentis single-stranded DNA-binding protein (Psychrobacter cryohalolentis); assay: cross-linking; 0.5% (v/v) glutaraldehyde, 15 min, 25°C, 10, 50 or 100 pmol SSB; quenched with 1 M Tris-HCl pH 8.0; SDS-PAGE (12%)
[5] = target: Psychrobacter cryohalolentis single-stranded DNA-binding protein (Psychrobacter cryohalolentis); assay: SEC; analytical gel filtration, Superdex 200 10/300 GL, 20 mM Tris-HCl pH 7.5, 150 mM NaCl, 10 mM EDTA, 0.5 ml/min; mass from a regression curve of standard proteins
[6] = target: Psychrobacter cryohalolentis single-stranded DNA-binding protein (Psychrobacter cryohalolentis); assay: sedimentation in glycerol gradient; linear 15 to 30% (w/v) glycerol gradients in 50 mM Tris-HCl pH 7.5, 0.5 M NaCl, 1 mM EDTA, 5 mM beta-mercaptoethanol; 50 ul of 300 uM SSB; SW 60 rotor, 46,000 rpm, 24 h, 4°C; fractions by SDS-PAGE; compared with standard proteins, EcoSSB and PhaSSB
[7] = test system: DpsSSB (Desulfotalea psychrophila LSv54 (DSM 12343)); assay: fluorescence titration; conditions: 2-300 mM NaCl, site size 31 ± 2 nt, EMSA: 20 mM Tris-HCl pH 8.0, 100 mM NaCl, 1 mM EDTA, 25 C, 2% agarose in TAE, fluorescence titration: 20 mM Tris-HCl pH 8.0, 1 mM EDTA, 2/100/300 mM NaCl
[8] = target: Psychromonas ingrahamii single-stranded DNA-binding protein (Psychromonas ingrahamii); assay: cross-linking; 0.5% (v/v) glutaraldehyde, 15 min, 25°C, 10, 50 or 100 pmol SSB; quenched with 1 M Tris-HCl pH 8.0; SDS-PAGE (12%)
[9] = target: Psychromonas ingrahamii single-stranded DNA-binding protein (Psychromonas ingrahamii); assay: SEC; analytical gel filtration, Superdex 200 10/300 GL, 20 mM Tris-HCl pH 7.5, 150 mM NaCl, 10 mM EDTA, 0.5 ml/min; mass from a regression curve of standard proteins
[10] = target: Psychromonas ingrahamii single-stranded DNA-binding protein (Psychromonas ingrahamii); assay: sedimentation in glycerol gradient; linear 15 to 30% (w/v) glycerol gradients in 50 mM Tris-HCl pH 7.5, 0.5 M NaCl, 1 mM EDTA, 5 mM beta-mercaptoethanol; 50 ul of 300 uM SSB; SW 60 rotor, 46,000 rpm, 24 h, 4°C; fractions by SDS-PAGE; compared with standard proteins, EcoSSB and PhaSSB
[11] = target: Psychroflexus torquis single-stranded DNA-binding protein (Psychroflexus torquis); assay: cross-linking; 0.5% (v/v) glutaraldehyde, 15 min, 25°C, 10, 50 or 100 pmol SSB; quenched with 1 M Tris-HCl pH 8.0; SDS-PAGE (12%)
[12] = target: Psychroflexus torquis single-stranded DNA-binding protein (Psychroflexus torquis); assay: SEC; analytical gel filtration, Superdex 200 10/300 GL, 20 mM Tris-HCl pH 7.5, 150 mM NaCl, 10 mM EDTA, 0.5 ml/min; mass from a regression curve of standard proteins
[13] = target: Psychroflexus torquis single-stranded DNA-binding protein (Psychroflexus torquis); assay: sedimentation in glycerol gradient; linear 15 to 30% (w/v) glycerol gradients in 50 mM Tris-HCl pH 7.5, 0.5 M NaCl, 1 mM EDTA, 5 mM beta-mercaptoethanol; 50 ul of 300 uM SSB; SW 60 rotor, 46,000 rpm, 24 h, 4°C; fractions by SDS-PAGE; compared with standard proteins, EcoSSB and PhaSSB
[14] = target: Desulfotalea psychrophila single-stranded DNA-binding protein (Desulfotalea psychrophila); assay: cross-linking; 0.5% (v/v) glutaraldehyde, 15 min, 25°C, 10, 50 or 100 pmol SSB; quenched with 1 M Tris-HCl pH 8.0; SDS-PAGE (12%)
[15] = target: Desulfotalea psychrophila single-stranded DNA-binding protein (Desulfotalea psychrophila); assay: SEC; analytical gel filtration, Superdex 200 10/300 GL, 20 mM Tris-HCl pH 7.5, 150 mM NaCl, 10 mM EDTA, 0.5 ml/min; mass from a regression curve of standard proteins
[16] = target: Desulfotalea psychrophila single-stranded DNA-binding protein (Desulfotalea psychrophila); assay: sedimentation in glycerol gradient; linear 15 to 30% (w/v) glycerol gradients in 50 mM Tris-HCl pH 7.5, 0.5 M NaCl, 1 mM EDTA, 5 mM beta-mercaptoethanol; 50 ul of 300 uM SSB; SW 60 rotor, 46,000 rpm, 24 h, 4°C; fractions by SDS-PAGE; compared with standard proteins, EcoSSB and PhaSSB
[17] = target: Psychrobacter arcticus single-stranded DNA-binding protein (Psychrobacter arcticus) (UniProt Q4FR27); assay: cross-linking; 0.5% (v/v) glutaraldehyde, 15 min, 25°C, 10, 50 or 100 pmol SSB; quenched with 1 M Tris-HCl pH 8.0; SDS-PAGE (12%)
[18] = target: Psychrobacter arcticus single-stranded DNA-binding protein (Psychrobacter arcticus) (UniProt Q4FR27); assay: SEC; analytical gel filtration, Superdex 200 10/300 GL, 20 mM Tris-HCl pH 7.5, 150 mM NaCl, 10 mM EDTA, 0.5 ml/min; mass from a regression curve of standard proteins
[19] = target: Psychrobacter arcticus single-stranded DNA-binding protein (Psychrobacter arcticus) (UniProt Q4FR27); assay: sedimentation in glycerol gradient; linear 15 to 30% (w/v) glycerol gradients in 50 mM Tris-HCl pH 7.5, 0.5 M NaCl, 1 mM EDTA, 5 mM beta-mercaptoethanol; 50 ul of 300 uM SSB; SW 60 rotor, 46,000 rpm, 24 h, 4°C; fractions by SDS-PAGE; compared with standard proteins, EcoSSB and PhaSSB
[20] = target: the molecule itself; assay: cross-linking; 0.5% (v/v) glutaraldehyde, 15 min, 25°C, 10, 50 or 100 pmol SSB; quenched with 1 M Tris-HCl pH 8.0; SDS-PAGE (12%)
[21] = target: the molecule itself; assay: SEC; analytical gel filtration, Superdex 200 10/300 GL, 20 mM Tris-HCl pH 7.5, 150 mM NaCl, 10 mM EDTA, 0.5 ml/min; mass from a regression curve of standard proteins
PprSSB = target: T1, PprSSB (Photobacterium profundum (LMG 19446), UniProt Q6LM83 5-187); assay: EMSA; complex I only; EMSA: 20 mM Tris-HCl pH 8.0, 100 mM NaCl, 1 mM EDTA, 25 C, 2% agarose in TAE; fluorescence titration: 20 mM Tris-HCl pH 8.0, 1 mM EDTA, 2/100/300 mM NaCl, 25 C; conditions: protein: recombinant; tags: none (stop codon in reverse primer); chain copies: 4; label: 5'-fluorescein
T1 sequence: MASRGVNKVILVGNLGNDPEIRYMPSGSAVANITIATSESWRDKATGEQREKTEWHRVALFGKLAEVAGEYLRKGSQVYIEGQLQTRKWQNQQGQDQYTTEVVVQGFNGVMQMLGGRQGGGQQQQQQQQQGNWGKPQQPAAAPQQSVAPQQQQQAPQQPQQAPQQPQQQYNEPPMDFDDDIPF

PcrSSB = target: T2, PcrSSB (Psychrobacter cryohalolentis K5 (DSM …, UniProt Q1Q9B8 1-1+=G+2-219, internal_change)); assay: as above; conditions: protein: recombinant; tags: none (stop codon in reverse primer); chain copies: 4; label: 5'-fluorescein
T2 sequence: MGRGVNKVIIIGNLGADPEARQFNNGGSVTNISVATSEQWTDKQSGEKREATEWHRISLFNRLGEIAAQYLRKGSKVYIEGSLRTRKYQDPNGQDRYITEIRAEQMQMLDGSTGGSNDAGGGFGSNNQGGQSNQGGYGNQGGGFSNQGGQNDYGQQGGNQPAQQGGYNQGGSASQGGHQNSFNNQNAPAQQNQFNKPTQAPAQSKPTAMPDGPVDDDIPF

PinSSB = target: T3, PinSSB (Psychromonas ingrahamii 37 (DSM 17664), UniProt A1T012 1-1+=G+2-222, internal_change); assay: as above; conditions: protein: recombinant; tags: none (stop codon in reverse primer); chain copies: 4; label: 5'-fluorescein
T3 sequence: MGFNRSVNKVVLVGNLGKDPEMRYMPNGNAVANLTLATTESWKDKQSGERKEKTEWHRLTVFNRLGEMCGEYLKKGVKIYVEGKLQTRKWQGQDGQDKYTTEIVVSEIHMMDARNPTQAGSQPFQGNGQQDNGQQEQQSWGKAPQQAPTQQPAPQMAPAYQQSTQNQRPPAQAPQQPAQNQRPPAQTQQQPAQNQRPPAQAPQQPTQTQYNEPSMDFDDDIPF

PtoSSB = target: T4, PtoSSB (Psychroflexus torquis ATCC 700755 (LMG …, UniProt K4IS14 1-151)); assay: as above; conditions: protein: recombinant; tags: none (stop codon in reverse primer); chain copies: 4; label: 5'-fluorescein
T4 sequence: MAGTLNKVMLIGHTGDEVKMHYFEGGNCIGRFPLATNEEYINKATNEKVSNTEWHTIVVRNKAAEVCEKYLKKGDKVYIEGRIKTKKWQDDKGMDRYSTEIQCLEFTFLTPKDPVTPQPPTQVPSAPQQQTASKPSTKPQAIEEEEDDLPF

## Photobacterium profundum single-stranded DNA-binding protein (from UniProt Q6LM83 1-187) (natural protein)
[1]
  stoichiometry N: 4
[2]
  stoichiometry N (mass monomers): 4.2
[3]
  stoichiometry N: 4

## Psychrobacter cryohalolentis single-stranded DNA-binding protein (natural protein)
[4]
  stoichiometry N: 4
[5]
  stoichiometry N (mass monomers): 4.1
[6]
  stoichiometry N: 4

## TTTTTTTTTTTTTTTTTTTTTTTTTTTTTTTTTTTTTTTTTTTTTTTTTTTTTTTTTTTTTTTTTTTTTTTTTTTT [(dT)76]
[7]
  binding signal (% Trp fluorescence quench at saturation): 93

## Psychromonas ingrahamii single-stranded DNA-binding protein (natural protein)
[8]
  stoichiometry N: 4
[9]
  stoichiometry N (mass monomers): 4.1
[10]
  stoichiometry N: 4

## Psychroflexus torquis single-stranded DNA-binding protein (natural protein)
[11]
  stoichiometry N: 4
[12]
  stoichiometry N (mass monomers): 4.2
[13]
  stoichiometry N: 4

## Desulfotalea psychrophila single-stranded DNA-binding protein (natural protein)
[14]
  stoichiometry N: 4
[15]
  stoichiometry N: 3.8 mass monomer
[16]
  stoichiometry N: 4

## Psychrobacter arcticus single-stranded DNA-binding protein (from UniProt Q4FR27 1-213) (natural protein)
[17]
  stoichiometry N: 4
[18]
  stoichiometry N (mass monomers): 4.1
[19]
  stoichiometry N: 4

B1: Flavobacterium psychrophilum single-stranded DNA-binding protein (natural protein)
chain: MGNGTLNKVMLIGHLGEDIKMHYFDGGNCIGRFPLATNEIYINKSTNEKITSTEWHNVVVRNKAAEICEKYLSKGDKIYVEGRIKSRQWQAEDGTVKYTTEIQVTEFTFLNTKKDSEIVKTASEAPKTTSFDSTVENDLPF
notes: SSB of Flavobacterium psychrophilum JIP02/86 (LMG 13180), 140 amino acid residues including the N-terminal methionine, 15.9 kDa monomer; Cloned in pBAD/myc-HisA between NcoI and HindIII; the reverse primer carries the gene's stop codon, so the vector's C-terminal myc-His tag is probably not on the protein (surmised); The forward primer has two G that are not complementary to the gene, which adds …
[20]
  stoichiometry N: 4
[21]
  stoichiometry N: 4.4 mass monomer

B2: (dT)35 (ssDNA)
DNA: TTTTTTTTTTTTTTTTTTTTTTTTTTTTTTTTTTT
PprSSB
  binding result: binds
PcrSSB
  binding result: binds
PinSSB
  binding result: binds
PtoSSB
  binding result: binds
